What was measured:
Assay in all cases: BLI; ND-BLI: biotinylated nanodiscs (15 nM) with reconstituted nanopores loaded on streptavidin (SAX) sensors; WDR5 in solution, 1 to 18 μM; 300 mM KCl, 20 mM Tris-HCl, 1 mg/mL BSA, 1 mM TCEP, pH 7.5; 24 °C; empty nanodiscs as reference
Conditions in all cases: both partners purified
[1] = molecular target: T1, WD40 repeat protein 5 truncation mutant lacking residues 1-22 (WDR5ΔN) (UniProt P61964 23-334)
[2] = molecular target: T1, WD40 repeat protein 5 truncation mutant …; remark: listed apart in the source
[3] = molecular target: T1, WD40 repeat protein 5 truncation mutant …; remark: listed apart in the source

Binder	Kd [1] [nM]	koff [2] [s⁻¹]	kon [2] [M⁻¹ s⁻¹]	koff [3] [s⁻¹]	kon [3] [M⁻¹ s⁻¹]
MGDRGPEFELGTMLNPHGAARAEVYLRGGSGGS (other) [O(GGS)2 nanopore sensor (adaptor O - MLL4Win - (GGS)2 tether - tFhuA)]	250 ± 50	0.0046	19000		
MGDRGPEFELGTMLNPHGAARAEVYLRPAPAPA (other) [O(PA)3 nanopore sensor (adaptor O - MLL4Win - (PA)3 tether - tFhuA)]	3010 ± 940			0.018	6000
MLNPHGAARAEVYLRGGSGGS (other) [(GGS)2 nanopore sensor without the peptide adaptor (MLL4Win - (GGS)2 tether - tFhuA)]	260 ± 30	0.0049	19000		

Reference: article PMC10278182, “Evaluation of Nanopore Sensor Design Using Electrical and Optical Analyses” (ACS Nano, 2023)
